Laboratory results reported in patent US20160090640A1.

Molecular target: GII.4 norovirus
Experiment: capture on a column of Con A-linked resin, real-time RT-PCR; the dilution applied held about 3.39 copies/µL; no Ct value in the non-Con A-linked resin

“Concanavalin A (Con A) (Sigma-Aldrich, USA) (from UniProt P02866 30-281)” showed a virus concentrated through the Con A-linked resin column of 2.16 copies/µL.
